Two substances from patent US20190125833A1 can be followed below.

The target in assay [1] is Myostatin (UniProt O14793). The assay is described as follows: SPR (Biacore T100), myostatin injected, Langmuir 1:1 model.
Assay [2] deals with Myostatin (UniProt O14793). The assay can be described thus: SPR (Biacore T100): Fc fusion captured by anti-human antibody on a CM4 chip, myostatin injected as analyte, Langmuir 1:1 model. Background: In SPR one partner is held on a chip, and binding of the other changes the refractive index at the surface.
The target in assay [3] is Myostatin (UniProt O14793). The assay can be described thus: cell-based or functional assay.

Activin Receptor 2B-FC (Fc fusion), sequence (Q13705 19-137): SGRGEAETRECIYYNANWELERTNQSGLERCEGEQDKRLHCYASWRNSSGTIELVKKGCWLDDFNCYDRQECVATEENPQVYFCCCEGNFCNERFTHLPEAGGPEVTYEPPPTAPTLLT
Myostatin, sequence (O14793 267-375 limits assumed): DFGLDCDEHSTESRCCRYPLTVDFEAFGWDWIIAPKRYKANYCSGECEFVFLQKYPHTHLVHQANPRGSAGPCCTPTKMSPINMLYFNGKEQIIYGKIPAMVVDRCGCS

By Kd is commonly meant a measure of binding affinity in units of concentration. Broadly, the koff is a measure of how fast the partners let go of each other. A low value points to slow dissociation. Usually kon stands for the second-order rate constant of association. A higher kon goes with fast association. Activin Receptor 2B-FC (Fc fusion) had a Kd with Myostatin [1] of 2.5 nM. Further, in the assay with Myostatin [2], the koff stood at 0.00098 s⁻¹ and the kon amounted to 390000 M⁻¹ s⁻¹.
As for hNOPE (1-620) ECD-FC (Fc fusion), the IC50 of inhibition of myostatin dependent SMAD2/3 activation (luciferase reporter, HEK293, 0.1 nM myostatin) in the assay with Myostatin [3] is 0.17 nM.
